Reference: PMC7840129, “Structural basis for heme-dependent NCoR binding to the transcriptional repressor REV-ERBβ” (Science Advances, 2021)
Residue numbers refer to the chain shown, from its start. Where no end group is shown, it is not given here.

B1: human REV-ERBβ ligand-binding domain (residues 381 to 579) (domain or fragment, UniProt Q14995 381-579, looked up)
chain: HLVCPMSKSPYVDPHKSGHEIWEEFSMSFTPAVKEVVEFAKRIPGFRDLSQHDQVNLLKAGTFEVLMVRFASLFDAKERTVTFLSGKKYSVDDLHSMGAGDLLNSMFEFSEKLNALQLSDEEMSLFTAVVLVSADRSGIENVNSVEALQETLIRALRTLIMKNHPNEASIFTKLLLKLPDLRSLNNMHSEELLAFKVHP
notes: cloned into pET46; Used ligand-free (apo) or loaded with heme (a small molecule; 1.05 to 2 molar equivalents); the two states are told apart by the assays; also called REV-ERBβ LBD; LBD; source: E. coli BL21(DE3), purified (IMAC, 3C protease cleavage, size exclusion); 15N-labelled in M9 minimal media for NMR; not shown: 6xHis, N-terminal, cleaved
B2: REV-ERBβ: full-length human REV-ERBβ expressed from pcDNA3.1 vector in HEK293T cells (protein)
chain: B1 chain
modifications: left off: 6xHis, N-terminal, cleaved
notes: full-length human REV-ERBβ expressed from pcDNA3.1 vector in HEK293T cells
B3: NCoR ID2 peptide (peptide)
peptide: DPASNLGLEDIIRKALMGSFDDK
modifications: not fully specified
notes: source: synthetic peptide, bought: LifeTein
B4: mouse NCoR RID ΔID2 mutant (domain or fragment)
chain: QVPRTHRLITLADHICQIITQDFARNQVPSQASTSTFQTSPSALSSTPVRTKTSSRYSPESQSQTVLHPRPGPRVSPENLVDKSRGSRPGKSPERSHIPSEPYEPISPPQGPAVHEKQDSMLLLSQRGVDPAEQRSDSRSPGSISYLPSFFTKLESTSPMVKSKKQEIFRKLNSSGGGDSDMAAAQPGTEIFNLPAVTTSGAVSSRSHSFADPASNLGTEDTTRKALMGSFDDKVEDHGVVMSHPVGIMPGSASTSVVTSSEARRDE
B5: mouse NCoR receptor interaction domain (residues 1942 to 2208 in the X50 splice variant), wild type (domain or fragment)
chain: B4 chain with T219L, T222I, T223I
B6: NCoR ID1 peptide (peptide)
peptide: RTHRLITLADHICQIITQDFARN
modifications: not fully specified
notes: as for B3

Legend:
[1] = target: B5; assay: ITC; apo LBD (300 μM, syringe; for WT RID 2 × 20 injections of 150 μM) titrated into RID construct (15 μM, cell); 25°C; Hepes assay buffer; WT RID fit to two nonsymmetric sites, microscopic K model; ΔID2 fit to A + B ↔ AB; details: both partners purified
[2] = target: B4; assay: as above; details: both partners purified
[3] = target: B5; assay: ITC; heme-bound LBD (300 μM, syringe) titrated into RID construct (15 μM, cell), 4 molar equivalents; 25°C; Hepes assay buffer; WT RID fit to A + B ↔ AB; details: both partners purified
NCoR ID2 peptide [4] = target: B3; assay: ITC; apo LBD (500 μM, syringe) titrated into ID peptide (50 μM, cell); 25°C; 20 mM Hepes pH 7.4, 50 mM KCl, 0.5 mM EDTA, 5 mM TCEP; A + B ↔ AB model in SEDPHAT; details: both partners purified
NCoR ID1 peptide [5] = target: B6; assay: as above; details: both partners purified
[6] = target: B5; assay: ITC; heme-bound LBD (300 μM, syringe) titrated into RID construct (15 μM, cell), 4 molar equivalents; 25°C; Hepes assay buffer; WT RID fit to A + B ↔ AB; details: both partners purified
[7] = target: B5; assay: ITC; apo LBD (300 μM, syringe; for WT RID 2 × 20 injections of 150 μM) titrated into RID construct (15 μM, cell); 25°C; Hepes assay buffer; WT RID fit to two nonsymmetric sites, microscopic K model; ΔID2 fit to A + B ↔ AB; details: both partners purified
NCoR ID2 peptide [8] = target: B3; assay: ITC; heme-bound LBD (500 μM with 1.05 molar equivalents of heme, syringe) titrated into ID peptide (50 μM, cell); 25°C; 20 mM Hepes pH 7.4, 50 mM KCl, 0.5 mM EDTA, 5 mM TCEP; A + B ↔ AB model in SEDPHAT; details: both partners purified
NCoR ID1 peptide [9] = target: B6; assay: as above; details: both partners purified
[10] = tested on: Bmal1 REV-RE promoter luciferase in HEK293T cells; assay: Bmal1-luciferase transcriptional repression assay; assay type: cell-based, human; details: for fold repression of Bmal1-luciferase: HEK293T, 24 hours, relative to empty vector, n = 3 independent experiments
Text: The human REV-ERBβ LBD (residues 381 to 579) was previously cloned into the pET46 vector ([18]). The mouse NCoR RID (residues 1942 to 2208 in the X50 splice variant), which has 87% sequence identity to human NCoR RID (100% sequence identity in the ID motifs), was previously cloned into the pET32 vector ([29]). NCoR RID mutants were generated by site-directed mutagenesis: The ID1 CoRNR box motif was mutated from […] to […] (ΔID1 and ΔID1ΔID2), and the ID2 CoRNR box motif was mutated from LEDIIRKAL to TEDTTRKAL (ΔID2 and ΔID1ΔID2), as these mutations were previously reported to disrupt CoRNR box binding ([10], [30]). Heme (Sigma-Aldrich, no. 51280) was prepared either as a 1 mM stock in dimethyl sulfoxide (DMSO) stored at 4°C or 50 mM stock in 0.2 M NaOH (solutions prepared in 0.2 M NaOH were always made fresh immediately before the experiment), where indicated. […] Human embryonic kidney (HEK) 293T cells (American Type Culture Collection, no. CRL-11268) were cultured in Dulbecco’s modified eagle medium (DMEM) supplemented with 10% fetal bovine serum, 2 mM L-glutamine, and 1% penicillin-streptomycin at 37°C and 5% CO2 under standard culture conditions. The pcDNA3.1^+ expression vector containing full-length human REV-ERBβ ([31]) and the pGL3-Bmal1-luciferase construct containing the Bmal1 promoter (−816 to +99 of the mouse Bmal1 promoter region) were used in HEK293T cell transfections. […]
HEK293T cells were plated at 1.5 × 10^3 cells per well in 96-well flat-bottom plates in DMEM 24 hours before transfection. […] Luciferase activity was harvested 24 hours after transfection with Britelite Plus (PerkinElmer) and read using a BioTek Synergy plate reader. Raw luminescence values of REV-ERBβ–transfected wells were normalized to pcDNA3.1 empty vector transfection wells individually for each Bmal1-luciferase construct to determine fold repression by REV-ERBβ for each Bmal1-luciferase construct. […]

[11] = target: B1; assay: ITC; apo LBD (500 μM, syringe) titrated into ID peptide (50 μM, cell); 25°C; 20 mM Hepes pH 7.4, 50 mM KCl, 0.5 mM EDTA, 5 mM TCEP; A + B ↔ AB model in SEDPHAT; details: both partners purified
[12] = target: B1; assay: ITC; apo LBD (300 μM, syringe; for WT RID 2 × 20 injections of 150 μM) titrated into RID construct (15 μM, cell); 25°C; Hepes assay buffer; WT RID fit to two nonsymmetric sites, microscopic K model; ΔID2 fit to A + B ↔ AB; details: both partners purified
[13] = target: B1; assay: ITC; heme-bound LBD (300 μM, syringe) titrated into RID construct (15 μM, cell), 4 molar equivalents; 25°C; Hepes assay buffer; WT RID fit to A + B ↔ AB; details: both partners purified
[14] = target: B1; assay: ITC; heme-bound LBD (500 μM with 1.05 molar equivalents of heme, syringe) titrated into ID peptide (50 μM, cell); 25°C; 20 mM Hepes pH 7.4, 50 mM KCl, 0.5 mM EDTA, 5 mM TCEP; A + B ↔ AB model in SEDPHAT; details: both partners purified

Molecule: B1
- KD site 1 [1]: 12 nM
- KD site 2 [1]: 740 nM
- dH site 1 [1]: -8.3 kcal/mol
- dH site 2 [1]: 3.2 kcal/mol
- dH [2]: -9.4 kcal/mol
- dH [3]: 1.7 kcal/mol
- dH (NCoR ID2 peptide [4]): -9.7 kcal/mol
- dH (NCoR ID1 peptide [5]): -7.7 kcal/mol
- stoichiometry N [6]: ~2 LBD per RID
- stoichiometry N [7]: 2 LBD per RID
- dH (NCoR ID2 peptide [8]): 3 kcal/mol
- dH (NCoR ID1 peptide [9]): 1.7 kcal/mol

Molecule: B2
- fold repression of Bmal1-luciferase ([10]; WT Bmal1 construct): approximately ninefold
- fold repression of Bmal1-luciferase ([10]; mutant Bmal1 constructs (one or both DNA binding sites within REV-RE mutated)): approximately threefold
- reduction of repression in mutant vs WT Bmal1 constructs ([10]; pRORE, dRORE or p/dRORE mutants vs WT, ***P < 0.001 by Student's t test): more than half

Molecule: B3
- Kd [11]: 84000 nM

Molecule: B4
- Kd [12]: 130 nM

Molecule: B5
- Kd [13]: 99 nM

Molecule: B6
- Kd [11]: 490 nM
- Kd [14]: 2400 nM
